The results in this text go back to US20110086806A1 (published 2011).

Residue numbers refer to the chain shown, from its start. In names and notes the source's numbering stands.

T1: recombinant human IL-23R/Fc chimera (R&D Systems) (human, UniProt Q5VWK5 24-355)
T1 construct: Bought; also called rhIL23RFc
T1 sequence (looked up): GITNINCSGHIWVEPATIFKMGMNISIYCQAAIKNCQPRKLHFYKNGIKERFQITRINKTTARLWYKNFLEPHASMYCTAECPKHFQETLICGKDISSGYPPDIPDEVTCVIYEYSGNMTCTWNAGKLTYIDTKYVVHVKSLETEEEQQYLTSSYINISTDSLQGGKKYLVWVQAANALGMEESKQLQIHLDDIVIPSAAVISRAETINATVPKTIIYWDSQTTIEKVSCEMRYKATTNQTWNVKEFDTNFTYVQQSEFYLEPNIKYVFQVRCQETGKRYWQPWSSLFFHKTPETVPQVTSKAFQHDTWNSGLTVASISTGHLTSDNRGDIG

T2: recombinant human IL-12Rβ2/Fc fusion protein (R&D Systems) (human, UniProt Q99665 24-622, limits assumed)
T2 construct: Bought; also called Il12Rb2
T2 sequence: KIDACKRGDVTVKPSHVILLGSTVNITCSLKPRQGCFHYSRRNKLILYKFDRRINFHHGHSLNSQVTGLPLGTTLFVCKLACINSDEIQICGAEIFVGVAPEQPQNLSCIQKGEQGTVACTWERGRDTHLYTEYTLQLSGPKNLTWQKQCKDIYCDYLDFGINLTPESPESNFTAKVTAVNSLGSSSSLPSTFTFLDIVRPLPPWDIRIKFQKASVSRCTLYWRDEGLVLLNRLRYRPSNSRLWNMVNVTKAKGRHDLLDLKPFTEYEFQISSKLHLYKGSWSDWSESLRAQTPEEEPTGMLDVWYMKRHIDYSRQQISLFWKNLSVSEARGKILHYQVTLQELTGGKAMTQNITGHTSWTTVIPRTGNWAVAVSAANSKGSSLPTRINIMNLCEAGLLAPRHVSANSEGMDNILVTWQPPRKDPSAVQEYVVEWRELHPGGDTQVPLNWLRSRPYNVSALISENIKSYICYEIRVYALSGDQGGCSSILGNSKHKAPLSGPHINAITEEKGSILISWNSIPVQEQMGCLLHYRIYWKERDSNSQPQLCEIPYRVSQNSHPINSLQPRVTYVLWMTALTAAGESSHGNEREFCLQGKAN

B1: 101-51-1A4 ATRIMER complex (designed binder)
chain: EPPTQKPKKIVNAKKDVVNTKMFEELKSRLDTLAQEVALLKEQQALQTVCLKGTKVHMKCFLAFTQTKTFHEASEDCISRGGTLSTPQTGSENDALYEYLRQSVGNEAEIWLGLNGSALTNTWVDMTGARIAYKNWERPALVQPRGGFGVFGENCAVLSGAANGKWFDKRCRDQLPYICQFGIV
modifications: Forms a homotrimer through the tetranectin coiled coil; one protomer is given.
notes: not shown: C-terminal tag: His/Myc (pANA4) or HA-StrepII (pANA10)
B2: 101-113-6C108 ATRIMER complex (designed binder)
chain: B1 chain with R138P, A140P, L141P, V142H, Q143H, R145M
modifications: Forms a homotrimer through the tetranectin coiled coil; one protomer is given.
notes: as for B1
B3: 105-08-1A8 ATRIMER complex (designed binder)
chain: B1 chain with A118P, L119R, R138T, P139E, A140I, L141T, V142A, R145D
B4: 101-51-1A7 ATRIMER complex (designed binder)
chain: B1 chain with A140P, V142Y, R145G, F148W
modifications: Forms a homotrimer through the tetranectin coiled coil; one protomer is given.
notes: as for B1
B5: 101-54-4B6 ATRIMER complex (designed binder)
chain: B1 chain with R138P, A140G, L141P, V142H, Q143H, R145M
B6: H4E E137A ATRIMER complex (designed binder)
chain: B1 chain with E137A, R138T, P139E, A140I, L141T, V142A, R145D

One experiment deals with T1, recombinant human IL-23R/Fc chimera …. The experiment can be described thus: competition ELISA vs IL-23.
As to B1, the “Ratio IC50 to 056-53.H4E IC50” value is 1.

As for B2, the “Ratio IC50 to 056-53.H4E IC50” value is 0.9.

On to B3, for which the “Ratio IC50 to 056-53.H4E IC50” value turned out to be 1.6.

In the case of B4, the “Ratio IC50 to 056-53.H4E IC50” value worked out at 1.

Regarding B5, the “Ratio IC50 to 056-53.H4E IC50” value is 0.3.

The next experiment shares this target. The experiment can be described thus: SPR. In short, it runs like this:
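Recombinant human IL-23R/Fc captured on anti-human IgG Fc CM5 surface (<200 RU); ATRIMER complexes at 1-500 nM injected at 30 μl/min, 3 min association and 5 min dissociation. Kinetic constants fitted from double-referenced sensorgrams.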
For orientation: SPR reads the build-up and loss of mass on a sensor chip optically.
The Kd is the free concentration of one partner at which half of the binding sites on the other are occupied at equilibrium, for simple one-to-one binding. The term koff denotes a measure of how fast the partners let go of each other. What is called kon is the rate constant with which the complex forms. B1: the Ka came out at 2.58e+09 M⁻¹, the Kd was 388 pM, the koff is 0.000395 s⁻¹ and the kon was 1.02e+06 M⁻¹ s⁻¹.

For B2, the Ka was found to be 1.63e+09 M⁻¹, the Kd turned out to be 613 pM, the koff was 0.000382 s⁻¹ and the kon came out at 623000 M⁻¹ s⁻¹.

Turning to B3, the Ka came out at 2.14e+09 M⁻¹, the Kd is 467 pM, the koff is 0.000344 s⁻¹ and the kon worked out at 737000 M⁻¹ s⁻¹.

As to B4, the Ka worked out at 2.24e+09 M⁻¹, the Kd worked out at 447 pM, the koff is 0.000187 s⁻¹ and the kon worked out at 419000 M⁻¹ s⁻¹.

With B5, the Ka came to 1.76e+09 M⁻¹, the Kd is 569 pM, the koff is 0.00039 s⁻¹ and the kon turned out to be 687000 M⁻¹ s⁻¹.

For another experiment, the target named is T2, recombinant human IL-12Rβ2/Fc fusion …. The experiment can be described thus: SPR. The protocol:
(§1) A Biacore 3000 biosensor (GE Healthcare) was used to evaluate the interaction of human IL-12Rβ1/Fc or IL-12Rβ2/Fc with IL-23R binding ATRIMER™ complexes. Immobilization of an anti-human IgG Fc antibody (GE Healthcare) to the CM5 chip (GE Healthcare) was performed using standard amine coupling chemistry, and this modified surface was used to capture recombinant human IL-12Rβ1/Fc or IL-12Rβ2/Fc fusion protein (R&D Systems). A low-density receptor surface, less than 200 RU, was used for all of the analyses. ATRIMER™ complex dilutions (100 nM) were injected over the IL-12R surface at 30 μl/min. Data collection was 3 minutes for the association and 5 minutes for dissociation. The anti-human IgG surface was regenerated with a 30s pulse of 3M magnesium chloride. All sensorgrams were double-referenced against an anti-human IgG Fc antibody surface as well as buffer injections.
Take B1: the binding result is listed as “no binding (tested: 100 nM)”.

On to B2, for which the binding result is reported as “no binding (tested: 100 nM)”.

For B3, the binding result is reported as “no binding (tested: 100 nM)”.

As to B4, the binding result is given as “no binding (tested: 100 nM)”.

B5: the binding result was “no binding (tested: 100 nM)”.

Take B6: the binding result is “no binding (tested: 100 nM)”.

The target in a further experiment is T3, recombinant human IL-12Rβ1/Fc fusion protein (R&D Systems) (human, UniProt P42701 24-540, limits assumed).
T3 construct: Bought; also called Il12Rb1
Nature of the experiment: SPR. The protocol: as §1
In the case of B1, the binding result is listed as “no binding (tested: 100 nM)”.

For B2, the binding result is “no binding (tested: 100 nM)”.

Consider B3, for which the binding result is “no binding (tested: 100 nM)”.

For the molecule B4, the binding result is recorded as “no binding (tested: 100 nM)”.

As to B5, the binding result was “no binding (tested: 100 nM)”.

Take B6: the binding result is listed as “no binding (tested: 100 nM)”.
